Data on two molecules can be found in paper PMC11496930 (2024).

In test [1] the target is T1, ADI-19425 Fab (human, UniProt P0DOY2 1-106). Description: BLI.
The target in test [2] is T1, ADI-19425 Fab. Description: BLI. This is another data set of the same source. On the technique in general: In BLI a coated tip is dipped into the sample, and binding shifts an interference pattern.

Where two headings read alike, the source gives them in different places.

B1: 2C1 recombinant IgG (human constant regions) (antibody, V domains shown)
VH: QVQLQQSGAELVRPGASVTLSCKASGYIFTDYEIHWLKQTPVHGLEWIGTSDPETGGFAYTQKFKGKAILTADKSSSTAYMELRSLTSEDSAVYYCTRRPYYGSGAWFAYWGQGTLVTVSA
VL: DIVMTQSHKFMSTSVGDRVSITCKANHDVNIAVAWYQQKPGQSPKLLIYSASYRYTGVPDRFTGSGSGTDFTFTISSVQAEDLAVYYCQQHYDTPRTFGGGTKLEIK
The term koff denotes the rate constant with which the complex falls apart. With B1, in the test with ADI-19425 Fab [1], the koff came out at 0.000442 s⁻¹.

B2: 1D3 recombinant IgG (human constant regions) (antibody, V domains shown)
VH: QVQIQQSGAELMRPGASVKLSCKATGYTFTGYWIEWVKQRPGHGLEWIGEILSGRGTTNYNEKFKGKATFTADTYSNTAYMQLSSLTTGDSAIYYCARGGFLYGDGPFDYWGQGTTLTVSS
VL: DILLTQSPAILSVSPGERVSFSCRASQNIDTHIHWYQQRTNGSPRLLIKYASESISGIPSRFSGSGSGTDFTLTINSVESEDIADYYCQQSNSWPFTFGSGTKLEIK
For B2, in the test with ADI-19425 Fab [2], the koff turned out to be 0.000115 s⁻¹.
